The record followed here is US20240279288A1, “APPLICATION OF PLANT JAZ PROTEINS AND DERIVED POLYPEPTIDES IN PREVENTION AND TREATMENT OF HUMAN AND ANIMAL TUMORS” (ANYANG INSTITUTE OF SINO-COTTON INDUSTRY INNOVATION, priority 2021, published 2024).

One test addresses c-Myc (Homo sapiens, UniProt P01106). The experiment in a line: Bimolecular fluorescence complementary experiment with c-Myc. The test is classed as binding. Set-up: with the full length of c-Myc and NMYC, respectively; expressed in transfected cells; host or cells: yeast Y2HGold. Particulars: bimolecular fluorescence complementation, YFP signal in the nucleus of tobacco. The source says:
GhJAZ1 (SEQ ID No. 39) was subcloned into pUC-SPYNE vector (Song, Yun, et al. “BIN2 negatively regulates plant defense against Verticillium dahliae in Arabidopsis and cotton.” Plant Biotechnology Journal (2021)) between the BamHI and XbaiI cleavage sites by the bimolecular fluorescence complementary experiment to construct pUC-SPYNE-GhJAZ1. c-Myc (NCBI accession number: NM_002467.6) was subcloned into pUC-SPYCE vector (Song, Yun, et al. “BIN2 negatively regulates plant defense against Verticillium dahliae in Arabidopsis and cotton.” Plant Biotechnology Journal (2021)) between BamHI and XbaiI cleavage sites to construct pUC-SPYCE-c-Myc. […] Testing of inhibitory effect of GhJAZ1 protein on tumor cells

Another test has as its target uPAR (Homo sapiens, UniProt Q03405). The experiment in a line: Yeast two hybrid with uPAR. It is filed as binding. Further details: the CDS of the above genes was subcloned to pGADT7 (YouBio, VT1639); expressed in transfected cells; host or cells: yeast Y2HGold. An excerpt: […]
In order to explore how GhJAZ1 enters cancer cells, we cloned the genes of most tumor surface receptors, including uPAR (NCBI database accession number of NM_002659.4), CCK1R (NP_000721.1), CCK2R (NP_001350481.1), HER2 (NP_004439.2), GRPR (NP_005305.1), MUC1 (NP_001358649.1), VEGFR1 (NP_002010.2), Insulin receptor (NM_000208.4), NTR (XM_011528827.2), PSMA (XM_017017432.1), TFR1 (NM_001128148.3), TFR2 (NM_003227.4), PEPT1 (NM_005073.4), APN (NM_001150.3). […] We detected the interaction of GhJAZ1 with uPA (as the ligand of uPAR, NCBI database accession number of NP_002649.2) and uPAR by yeast two hybrid (the steps of the experiment as Example 3). […]

Chain of uPAR (Q03405 23-305): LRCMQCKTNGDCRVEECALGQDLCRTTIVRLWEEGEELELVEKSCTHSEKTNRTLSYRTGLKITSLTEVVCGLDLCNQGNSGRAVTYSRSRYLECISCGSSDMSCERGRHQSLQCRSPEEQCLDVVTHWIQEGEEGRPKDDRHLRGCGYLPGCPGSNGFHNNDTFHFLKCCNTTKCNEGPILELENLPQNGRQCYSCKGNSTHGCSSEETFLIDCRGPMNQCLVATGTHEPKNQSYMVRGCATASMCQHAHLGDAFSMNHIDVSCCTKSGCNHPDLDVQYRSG
Chain of c-Myc (P01106 whole entry): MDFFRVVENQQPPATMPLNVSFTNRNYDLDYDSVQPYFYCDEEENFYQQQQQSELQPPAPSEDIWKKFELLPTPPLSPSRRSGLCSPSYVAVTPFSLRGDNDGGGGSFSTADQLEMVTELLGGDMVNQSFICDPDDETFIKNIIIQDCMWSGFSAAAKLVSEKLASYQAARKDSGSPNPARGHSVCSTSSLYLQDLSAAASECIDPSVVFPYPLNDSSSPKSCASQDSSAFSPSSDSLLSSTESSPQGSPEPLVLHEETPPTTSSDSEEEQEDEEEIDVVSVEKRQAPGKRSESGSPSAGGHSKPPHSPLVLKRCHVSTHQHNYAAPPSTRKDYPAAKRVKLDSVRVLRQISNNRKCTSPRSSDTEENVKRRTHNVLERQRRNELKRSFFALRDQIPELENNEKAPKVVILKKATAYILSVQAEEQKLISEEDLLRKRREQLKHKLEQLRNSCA

B1: GhJAZ1: cotton JAZ1 protein, gene number Gh_A05G0260, sequence SEQ ID No. 4; prokaryotically expressed with His tag, about 30 KD (protein)
chain: MSSCSESTAMKPARSPEKPSFAQTCNLLSQYLKEKGSFGDLSLGMTCNVEANGTPVVPPPTMNLFPLNDKSDDVCGRNGGNPKNLTSMDLFPQQAGLASKDDSPNKLEPQTAPMTIFYGGQVIVFNDFPANKAKEIMLLASNSSSQSNNSFNPIPFTSSIARSPIESSIGVPPTSKPVHPAQRAVPGDLPIARRASLHRFLEKRKDRITAKAPYQINNSAAAPSLSGDNKSWLGLAAQSP
modifications: His tag
notes: prokaryotically expressed with His tag, about 30 KD
Consider B1, for which the “interaction with c-Myc” value in the test with c-Myc is “interaction”. Moreover, the “interaction with uPAR” value with uPAR is on record as “interacted”.

B2: GhJAZ1 after deletion of NT domain: GhJAZ1 mutant with NT domain deleted, protein sequence SEQ ID No. 83 (protein)
chain: MSSCSESTAMKPARSPEANGTPVVPPPTMNLFPLNDKSDDVCGRNGGNPKNLTSMDLFPQQAGLASKDDSPNKLEPQTAPMTIFYGGQVIVFNDFPANKAKEIMLLASNSSSQSNNSFNPIPFTSSIARSPIESSIGVPPTSKPVHPAQRAVPGDLPIARRASLHRFLEKRKDRITAKAPYQINNSAAAPSLSGDNKSWLGLAAQSP
With B2, in the test with uPAR, the “interaction with uPAR” value is reported as “significantly weakened”.
